± gives the standard deviation.
Assay: protein stability index of a GFP-peptide fusion (GPS, HEK-293T) (PSI 1-6); higher = more stable
[1] = treatment: DMSO, c terminus: a fixed tail appended
[2] = treatment: MLN4924 1 uM, 8 h, c terminus: a fixed tail appended
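Note: 24-mer peptide tiles fused after GFP, lentivirally expressed, FACS-sorted into six equal bins by GFP/DsRed ratio, decoded by Illumina sequencing, PSI is the read-weighted mean bin number.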

Sequence | protein stability index [1] | protein stability index [2] | protein stability index (treatment: DMSO, c terminus: native) | protein stability index (treatment: MLN4924 1 uM, 8 h, c terminus: native)
PCVIESLRTLDKKTFYKTADISQM [TAF7L] | 2.33 ± 0.34 | 2.41 ± 0.23 |  | 
GSLGSRAEPAPRAREGGGCGRSEV [SMAD6] | 4.84 ± 0.15 | 4.92 ± 0.11 |  | 
LQNEVRQLTEKLARVNENLARKIA [SSNA1] | 2.27 ± 0.29 | 2.2 ± 0.29 |  | 
SRISHLVLPVQPVSSIEEQGCLF [TOR1AIP2] |  |  | 2.63 ± 0.44 | 2.62 ± 0.22
ALRLEVRAGPDSAGIALYSHEDVC [CARM1] | 2.61 ± 0.64 | 2.55 ± 0.56 |  | 
NAKLAADDFRTKYQTEQSLRQLVE [KRT33B] | 3.4 ± 0.26 | 3.48 ± 0.14 |  | 
IGPPSAAAIFKIYLSCLEELMKCQ [TRIP13] | 2.16 ± 0.31 | 2.21 ± 0.34 |  | 
ELKLGRKVPESLVRSLRGEEPVPR [LURAP1L] | 3.85 ± 0.25 | 4.16 ± 0.33 |  | 
VTLMVAKWTGDFFNKGIYDIHVGL [CLCN6] | 2.46 ± 0.4 | 3.58 ± 0.26 |  | 
ISLAKGPPGPKGDQGDEGKEGRPG [SCARA5] | 5.24 ± 0.26 | 5.485 ± 0.034 |  | 
KLFCIPVHGIRSVGTAAVNMCLVA [IMPA1] | 2.4 ± 0.8 | 2.26 ± 0.85 |  | 
VQTSVIGSNGYILNKPALQAQPLR [EHMT1] | 3.06 ± 0.34 | 3.17 ± 0.13 |  | 
MDVTSRCTLGDPNKLPEGVPQPAR [KLHL20] | 4.64 ± 0.28 | 4.72 ± 0.23 |  | 
WYDMFRDAAAILLDEQNKRPCRKF [ZMAT5] | 2.35 ± 0.22 | 2.33 ± 0.44 |  | 
KKDTLTEEETQFYISETVLAIDAI [STK38L] | 3.85 ± 0.3 | 3.97 ± 0.15 |  | 
RHDSETEDMLWDDLLHGPECRSSV [PHTF1] | 4.68 ± 0.24 | 4.7 ± 0.2 |  | 
LKAIIFFDPDAKGLSDPGKIKRLR [HNF4A] | 2.45 ± 0.33 | 2.37 ± 0.12 |  | 
LRYVNSTRAPQRAHEVLQELRDIS [FBXO28] | 3.09 ± 0.21 | 3.35 ± 0.28 |  | 
ISNIDTTIEGTSDDLTVVDAASLR [MFF] | 5.09 ± 0.27 | 4.82 ± 0.56 |  | 
YESHSTSELEDLTEPEQRELKTKL [TPD52L3] | 5.63 ± 0.13 | 5.52 ± 0.11 |  | 
LSLIGVRVDVDTYLTSQLPPLREI [NFE2L1] | 3.12 ± 1.1 | 2.57 ± 0.58 |  | 
FPSLHQSLPQNQCYMATTKSQTAC [EHMT1] | 3.06 ± 0.15 | 3.47 ± 0.2 |  | 
SGESNSAVSTEDLKECLKKQLEFC [LARP4] | 4.43 ± 0.49 | 4.64 ± 0.19 |  | 

Sequence | protein stability index [1] | protein stability index [2] | protein stability index (treatment: DMSO, c terminus: native) | protein stability index (treatment: MLN4924 1 uM, 8 h, c terminus: native)
TTSPNVLWPTPGHLSPLVVHRQLS [ESR2] | 2.85 ± 0.29 | 2.72 ± 0.41 |  | 
LENVLDPDSFYELKSQPLPLRSSL [TFE3] | 3.4 ± 0.27 | 3.49 ± 0.21 |  | 
ATSVTVPGAGVPSGSGGTVAPATM [ZBTB22] | 4.7 ± 0.38 | 4.64 ± 0.43 |  | 
YAFANVFHGWKYMFGLVIPLGVLQ [SLC2A12] | 3.19 ± 0.62 | 3.11 ± 0.52 |  | 
IENYKKQTRNGLGKDHEILRRRIE [FUT8] | 3.67 ± 0.24 | 3.87 ± 0.24 |  | 
PLDILAQPLEASNPALEGLTQPLQ [DNAAF3] | 4.9 ± 0.28 | 4.78 ± 0.16 |  | 
TKVVYLASETFNYSAIDRVKSRGK [PI4K2A] | 2.85 ± 0.18 | 3.17 ± 0.31 |  | 
SLSFEDFLDLLSVFSDTATPDIKS [CIB1] | 2.26 ± 0.35 | 2.29 ± 0.33 |  | 
VFYCDPCRLRCHPPRGPLAKHRLV [TRIM9] | 2.19 ± 0.34 | 2.36 ± 0.29 |  | 
KNIVIADFVMSLTFPFKILGDSGL [P2RY14] | 3.04 ± 0.65 | 2.99 ± 0.38 |  | 
VIQPALPGQPLPGASVRGLHPVQK [TRAF3IP2] | 3.76 ± 0.34 | 3.66 ± 0.39 |  | 
ESGDEVPVELYTAFQHTPTSITLT [KMT2E] | 2.73 ± 0.97 | 3.65 ± 0.62 |  | 
CEKRCSYCNFNKYIPRRLEEAAMQ [RSAD1] | 2.4 ± 0.028 | 2.6 ± 0.31 |  | 
GTPKDHDSPENGADSFESSDSLLQ [ETS2] | 5.46 ± 0.23 | 5.47 ± 0.23 |  | 
PMLWNPSGTPKRYSLELGKAIKQK [C22orf31] | 3.59 ± 0.23 | 3.56 ± 0.14 |  | 
LKEGMLMKIKQDRASRTYELQNQL [FSD1] | 3.05 ± 0.35 | 3.39 ± 0.19 |  | 
LREERKKAKKNKDKYVGVSSDSVG [CLINT1] | 4.95 ± 0.17 | 5.09 ± 0.15 |  | 
CFALIPKAPKKDVIKMLVNDNKVL [EFHC1] | 2.28 ± 0.44 | 2.43 ± 0.53 |  | 
TSPWSECTKTCGVGVRMRDVKCYQ [ADAMTSL2] | 2.81 ± 0.21 | 2.44 ± 0.38 |  | 
DWVVVKEPVIKVAAIDNGLAFPLK [PI4K2A] | 2.52 ± 0.43 | 2.94 ± 0.29 |  | 
DIFPELDDILYHVKGMQRIVNQWS [DLC1] | 2.42 ± 0.13 | 2.49 ± 0.12 |  | 
EEEGIETQYFAELLMTSGVVLCEG [CNOT7] | 3.27 ± 0.24 | 3.39 ± 0.12 |  | 
FRALKRPLQFLGLFENSLCRLTHI [ZER1] | 2.62 ± 0.4 | 2.46 ± 0.54 |  | 

Sequence | protein stability index [1] | protein stability index [2] | protein stability index (treatment: DMSO, c terminus: native) | protein stability index (treatment: MLN4924 1 uM, 8 h, c terminus: native)
RIHSGEEPHKCPECGKRFLRSSDL [ZNF449] | 3.51 ± 0.73 | 4.09 ± 0.34 |  | 
AREELMESRMRIESLSSQLSNLQK [LMNB1] | 3.95 ± 0.18 | 4.07 ± 0.19 |  | 
TVQSRPRIDGKLDSPSRSPSKVEV [C2CD2L] | 4.78 ± 0.21 | 4.65 ± 0.37 |  | 
EIKLVSDVTADSKVLEALKLKGAE [PLD5] | 4.31 ± 0.41 | 4.34 ± 0.51 |  | 
HFSSIPDAFWWAVVSMTTVGYGDM [KCNA1] | 3.56 ± 0.34 | 3.12 ± 0.29 |  | 
SPMYFFLASLSFIDTVYSTAFAPK [OR4A15] | 3.01 ± 0.35 | 2.92 ± 0.54 |  | 
LLLLLPTLQSITWQMIEQIQFIKL [HNF4A] | 3.58 ± 0.39 | 3.28 ± 0.28 |  | 
KMELGIDLLAYGAKAELPKYKSFN [MYOZ1] | 2.59 ± 0.23 | 2.77 ± 0.24 |  | 
LLSRFSVGIFHLMQIAVPCAFLLL [TMEM175] | 2.6 ± 0.35 | 2.24 ± 0.25 |  | 
DSMYGECRTYIIHYYLMDDTVEIR [EFHC1] | 2.35 ± 0.6 | 2.6 ± 0.69 |  | 
VAEKVVVITKHNDDEQYAWESSAG [HSP90AB1] | 4.53 ± 0.11 | 4.34 ± 0.29 |  | 
AAAATVLLRTARVRRECWFLPTAL [SLC19A2] | 2.51 ± 0.54 | 2.28 ± 0.42 |  | 
YRFFKYIENRDVAKSVLKERGLKK [BTBD10] | 2.44 ± 0.25 | 2.52 ± 0.3 |  | 
TLIVVDASGLGLEITTQFLIYASY [SLC19A2] | 3.32 ± 0.54 | 3.32 ± 0.4 |  | 
GLDFLHANCIVHRDLKPENILVTS [CDK4] | 2.49 ± 0.23 | 2.61 ± 0.4 |  | 
IVWNKKGKKVSNQRFEVIEFDDGS [PTPRD] | 3.31 ± 0.18 | 3.15 ± 0.062 |  | 
QKRYHCKECGKVFSQSAGLIQHQR [ZSCAN9] | 3.3 ± 0.35 | 3.63 ± 0.63 |  | 
YVKAKKSIDKDEEFAGSSPQSSKS [FAN1] | 3.57 ± 0.67 | 4.16 ± 0.65 |  | 
NKALWENNKLKLQQKLVIDTVTEV [CBY2] | 3.16 ± 0.35 | 3.29 ± 0.25 |  | 
QDDLENPMLETASKLLLSGTADGA [ANKRD17] | 5.14 ± 0.33 | 5.2 ± 0.36 |  | 
LAARRQWRDECLMRLAKLKSQVQP [CRYL1] | 2.35 ± 0.36 | 2.52 ± 0.79 |  | 
LRKYSFDGLDLDWEYPGSQGSPAV [CHIT1] | 2.32 ± 0.23 | 2.61 ± 0.38 |  | 
KLHEIFRGLHEDLQGVPERLLGTA [VTI1B] | 2.48 ± 0.3 | 2.72 ± 0.74 |  | 

Sequence | protein stability index [1] | protein stability index [2] | protein stability index (treatment: DMSO, c terminus: native) | protein stability index (treatment: MLN4924 1 uM, 8 h, c terminus: native)
ADSMLMQGSRGLTDQAIFYAVTPL [HDAC6] | 2.54 ± 0.39 | 2.46 ± 0.44 |  | 
SEKASKKYVSKELAKEIRVKAEPF [EIF5] | 4.29 ± 0.28 | 4.36 ± 0.18 |  | 
YKDRQKFSEQVFKVASSDLVNMGI [FLOT1] | 2.52 ± 0.24 | 2.77 ± 0.29 |  | 
RSLQRGCRALRDPALDSLAYEYER [TRADD] | 3.13 ± 0.059 | 3.47 ± 0.32 |  | 
RQKKLMHKLQEEKAFREEMKIFRE [CCDC70] | 3.37 ± 0.28 | 3.59 ± 0.35 |  | 
GGGVATSPMLIVFHGKYSTINPLW [GLT8D2] | 3.02 ± 1.3 | 2.36 ± 0.56 |  | 
QIITVTVQTGLDQYQQVPVEIVKS [IQUB] | 2.32 ± 0.17 | 2.07 ± 0.38 |  | 
KQPPLSTVPADGYILELDDGNGGQ [TRIM9] | 5.07 ± 0.12 | 5.07 ± 0.2 |  | 
GELSQARGQEPARADQLCQQELRE [PRPH] | 5.26 ± 0.56 | 5.56 ± 0.085 |  | 
NLLISLTFLTVTDLIGLPWVCFIY [SLC2A12] | 3.36 ± 0.45 | 3.19 ± 0.63 |  | 
VKVVLIPVGQEIVIPFKVDTILKY [IQUB] | 3.98 ± 0.88 | 2.5 ± 0.79 |  | 
VLELLGPSLEDLFDLCDRTFSLKT [CSNK1G3] | 2.38 ± 0.57 | 2.36 ± 0.48 |  | 
ALSPAGVCGGAQRPGHLPGLLLGS [CDC25B] | 2.51 ± 0.22 | 2.93 ± 0.46 |  | 
TLRSHLKSFSMAKGLNARMMRGLS [RAB40A] | 2.47 ± 0.19 | 2.78 ± 0.24 |  | 
FLDLLSVFSDTATPDIKSHYAFRI [CIB1] | 2.86 ± 0.6 | 2.85 ± 0.76 |  | 
FPDLNTYIYYNEKYGGPNHHLPLP [CPN1] | 2.15 ± 0.17 | 2.42 ± 0.096 |  | 
YKAKSRSPGSPVGEGTGSPPKWQI [ADD1] | 3.5 ± 0.28 | 3.76 ± 0.33 |  | 
MSLEGTEKASWLGEQPQFWSKTQV [ELF3] | 3.31 ± 0.42 | 3.33 ± 0.16 |  | 
LDELLGRGMATKLLARPGTGEHRE [FBF1] | 3.75 ± 0.17 | 4.09 ± 0.29 |  | 
ETENIIAANHWVLPAAEFHGLWDS [TRIP13] | 3.28 ± 0.29 | 3.36 ± 0.26 |  | 

From the supplement of paper PMC10567573
